Columns and labels:
Conditions in all cases: other: capillary electrophoresis
[1] = target: WT Cu, Zn superoxide dismutase-1 (SOD1), recombinant human (UniProt P00441); test: capillary electrophoresis; binder (first named) as 4Zn-SOD1, target (second named, WT or TD) as apo-SOD1; 15 μM dimer each ([SOD1]total = 30 μM), followed over time; 10 mM potassium phosphate pH 7.4, CE at 22 °C, storage at 15 °C; KHet assumed from the fit extrapolated to t = 5000 min
[2] = target: WT Cu, Zn superoxide dismutase-1 (SOD1), recombinant human (UniProt P00441); test: capillary electrophoresis; both homodimers apo (metal-free, disulfide intact), mixed at 15 μM dimer each ([SOD1]total = 30 μM), followed over time; 10 mM potassium phosphate pH 7.4, CE at 22 °C, storage at 15 °C; KHet assumed from the fit extrapolated to t = 5000 min
[3] = target: WT Cu, Zn superoxide dismutase-1 (SOD1), recombinant human (UniProt P00441); test: capillary electrophoresis; both homodimers as 4Zn-SOD1; 15 μM dimer each ([SOD1]total = 30 μM), followed over time; 10 mM potassium phosphate pH 7.4, CE at 22 °C, storage at 15 °C; KHet assumed from the fit extrapolated to t = 5000 min
[4] = target: WT Cu, Zn superoxide dismutase-1 (SOD1), recombinant human (UniProt P00441); test: capillary electrophoresis; binder (first named) as apo-SOD1, target (second named, WT or TD) as 4Zn-SOD1; 15 μM dimer each ([SOD1]total = 30 μM), followed over time; 10 mM potassium phosphate pH 7.4, CE at 22 °C, storage at 15 °C; KHet assumed from the fit extrapolated to t = 5000 min

Sequence of triply deamidated SOD1 (modeled with N26D/N131D/N139D substitutions), recombinant human (chain, as listed by the source N26D N131D N139D): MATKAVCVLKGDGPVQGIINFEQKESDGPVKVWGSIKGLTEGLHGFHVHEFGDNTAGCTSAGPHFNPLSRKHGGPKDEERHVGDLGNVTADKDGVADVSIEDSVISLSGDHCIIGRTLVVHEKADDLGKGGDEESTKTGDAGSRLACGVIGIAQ
Sequence of WT Cu, Zn superoxide dismutase-1 (SOD1), recombinant human (P00441 whole entry): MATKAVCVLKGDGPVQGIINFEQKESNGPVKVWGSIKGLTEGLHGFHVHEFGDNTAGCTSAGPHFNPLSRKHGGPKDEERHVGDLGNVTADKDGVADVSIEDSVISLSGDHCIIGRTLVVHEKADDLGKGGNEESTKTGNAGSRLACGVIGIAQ

## triply deamidated SOD1 (modeled with N26D/N131D/N139D substitutions), recombinant human
[1]
  t30% (time to reach 30% heterodimer): 297 min
[2]
  t30% (time to reach 30% heterodimer): 85.8 min
[3]
  t30% (time to reach 30% heterodimer): 339 min
[4]
  t30% (time to reach 30% heterodimer): 188 min

— paper PMC9667317
